From patent US20090053203A1 come the findings set out here.

For this test, the target named is receptor for advanced glycated end products (RAGE) (human) (UniProt Q15109). Kind of test: cell-based or functional assay. The following applies: scale: relative to saline-treated controls.
Sequence of receptor for advanced glycated end products (RAGE) (human) (Q15109 23-404): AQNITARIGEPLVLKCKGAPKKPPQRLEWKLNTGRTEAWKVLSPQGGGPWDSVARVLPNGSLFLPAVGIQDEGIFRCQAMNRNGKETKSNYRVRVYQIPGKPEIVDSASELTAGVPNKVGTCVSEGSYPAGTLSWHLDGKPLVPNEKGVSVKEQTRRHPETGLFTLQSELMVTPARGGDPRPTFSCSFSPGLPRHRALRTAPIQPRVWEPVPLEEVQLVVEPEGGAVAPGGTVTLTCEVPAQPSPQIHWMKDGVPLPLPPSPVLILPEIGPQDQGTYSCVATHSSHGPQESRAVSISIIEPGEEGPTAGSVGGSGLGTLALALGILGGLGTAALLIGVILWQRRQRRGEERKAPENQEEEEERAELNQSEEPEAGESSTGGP

Substance glycated hemoglobin (ligand) registered a Phospbo-PKCa/bII (T638/641) (ELISA, 293 kidney cells, 4 hr) of 1.52; a Phospho-ATF2 (T71) (ELISA, 293 kidney cells, 4 hr) of 1.61; a Phospho-Akt (S473) (ELISA, 293 kidney cells, 4 hr) of 1.92; a Phospho-Akt (T308) (ELISA, 293 kidney cells, 4 hr) of 1.06. This substance yielded a Phospho-ERK (T202/Y204) (ELISA, 293 kidney cells, 4 hr) of 1; a Phospho-IRS1 (S307) (ELISA, 293 kidney cells, 4 hr) of 1.56; a Phospho-IRS2 (S731) (ELISA, 293 kidney cells, 4 hr) of 1.03; a Phospho-JNK (T183/Y185) (ELISA, 293 kidney cells, 4 hr) of 1.38. Besides, the Phospho-PKCmu (S916) (ELISA, 293 kidney cells, 4 hr) turned out to be 0.95; the Total Akt1 (ELISA, 293 kidney cells, 4 hr) stood at 1.27; the Total Akt2 (ELISA, 293 kidney cells, 4 hr) was found to be 0.81; the Total IRS-1 (ELISA, 293 kidney cells, 4 hr) was 1.07. Further, the Total IRS-2 (ELISA, 293 kidney cells, 4 hr) was determined as 1.47 and the Total collagen-IV (ELISA, 293 kidney cells, 4 hr) was determined as 1.34.
